Measurements published in article PMC2927863.

T1: GST-NHR-6 (C288S) (Caenorhabditis elegans, UniProt P41829 260-619, C288S)
T1 sequence: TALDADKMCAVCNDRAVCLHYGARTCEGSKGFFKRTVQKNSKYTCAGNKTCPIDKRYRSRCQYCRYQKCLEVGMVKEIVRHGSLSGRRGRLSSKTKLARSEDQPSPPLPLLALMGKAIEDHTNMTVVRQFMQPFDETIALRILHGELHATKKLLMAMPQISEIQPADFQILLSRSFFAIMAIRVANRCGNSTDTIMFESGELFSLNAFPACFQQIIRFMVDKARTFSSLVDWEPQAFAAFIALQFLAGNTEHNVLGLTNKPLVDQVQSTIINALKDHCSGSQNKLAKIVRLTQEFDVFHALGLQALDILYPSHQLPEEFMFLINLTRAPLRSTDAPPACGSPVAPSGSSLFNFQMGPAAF

T2: GST-NHR-6 (DBD+LBD) (Caenorhabditis elegans, UniProt P41829 260-619)
T2 sequence: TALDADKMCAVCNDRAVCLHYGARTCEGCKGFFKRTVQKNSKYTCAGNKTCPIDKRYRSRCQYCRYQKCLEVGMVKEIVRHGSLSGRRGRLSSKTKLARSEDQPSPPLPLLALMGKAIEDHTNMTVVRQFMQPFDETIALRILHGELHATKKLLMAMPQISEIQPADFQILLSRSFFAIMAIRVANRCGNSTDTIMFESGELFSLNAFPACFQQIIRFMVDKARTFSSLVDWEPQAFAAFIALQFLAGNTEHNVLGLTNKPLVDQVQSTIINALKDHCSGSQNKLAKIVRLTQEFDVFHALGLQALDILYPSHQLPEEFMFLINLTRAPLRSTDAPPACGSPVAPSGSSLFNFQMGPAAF

B1: NBRE 26-mer (dsDNA)
DNA 1: GAGTTTTAAAAGGTCATGCTCAATTT
DNA 2: AAATTGAGCATGACCTTTTAAAACTC
B2: mutant NBRE 26-mer (dsDNA)
DNA 1: GAGTTTTACCAGGTCATGCTCAATTT
DNA 2: AAATTGAGCATGACCTGGTAAAACTC

Assays:
GST-NHR-6 (C288S) = biological target: T1, GST-NHR-6 (C288S); assay: EMSA
GST-NHR-6 (DBD+LBD) [1] = biological target: T2, GST-NHR-6 (DBD+LBD); assay: EMSA
GST-NHR-6 (DBD+LBD) [2] = biological target: T2, GST-NHR-6 (DBD+LBD); assay: competition

Row | Binder | binding result (GST-NHR-6 (C288S)) | binding result (GST-NHR-6 (DBD+LBD) [1]) | binding result (GST-NHR-6 (DBD+LBD) [2])
1 | B1 | no binding | binds | 
2 | B2 |  |  | no binding
